Four proteins from PMC7074997, “Biodiesel and flavor compound production using a novel promiscuous cold-adapted SGNH-type lipase (HaSGNH1) from the psychrophilic bacterium Halocynthiibacter arcticus” (Biotechnology for Biofuels, 2020) can be followed below.

What all share (test): purified protein
Common to all, as to assay type: biochemical, Falsihalocynthiibacter arcticus
Holding throughout (conditions): free enzyme, 20 mM Tris-HCl pH 8.0, 25 °C (standard assay)

Substrate in data set [1]: CC(=O)Oc1ccc([N+](=O)[O-])cc1
Substrate in data set [2]: CCCC(=O)Oc1ccc([N+](=O)[O-])cc1
Substrate in data set [3]: CCCCCC(=O)Oc1ccc([N+](=O)[O-])cc1

One may read the Vmax as the top rate of the reaction or transport when substrate is in excess. A word on the kcat: it is the number of substrate molecules converted per active site and unit of time at saturation. A word on the kcat/Km: it is the turnover number divided by the Michaelis constant.

B1: HaSGNH1 (Falsihalocynthiibacter arcticus) (protein)
chain: MSARVQAETVVIAALGDSLTQGYGLPQEDGLVAQLQGWLDENNHDIRLINAGVSGDTTAGGRSRIEWTLTPDVDAVIVELGGNDMMRGIAPSDSRKNLTEILEILQSRDLPVLLVGLPSANNFGPEFKAEFDDMFPALSTDFETLLYPDFFTSFRTKLNDTSALTTYMQDDAIHPNAKGVAAIVEDFGPLVVELAQQTQE
notes: ORF cloned from genomic DNA (primer starts ATG AGT GCT CGC GTT: MSARV), pET-21a, N-terminal His6 tag, E. coli BL21(DE3)
In the case of B1, in “purified protein [1]”, the Km was 0.93 (± 0.15) mM, the maximal velocity (Vmax) was 29.4 µM/min, the kcat amounted to 8.38 ± 0.53 s⁻¹ and the kcat/Km was 8900 M⁻¹ s⁻¹. Also, in the data set “purified protein [2]”, the Km is 0.80 (± 0.23) mM, the Vmax stood at 60 µM/min, the catalytic constant (kcat) amounted to 17.1 ± 1.83 s⁻¹ and the kcat/Km came to 21300 M⁻¹ s⁻¹. Further, in the data set “purified protein [3]”, the Km is recorded as 0.99 (± 0.20) mM, the maximum rate (Vmax) was 57.6 µM/min, the turnover number (kcat) turned out to be 16.5 ± 1.45 s⁻¹ and the kcat/Km is 16700 M⁻¹ s⁻¹.

B2: HaSGNH1 (Falsihalocynthiibacter arcticus; M86R) (protein)
chain: MSARVQAETVVIAALGDSLTQGYGLPQEDGLVAQLQGWLDENNHDIRLINAGVSGDTTAGGRSRIEWTLTPDVDAVIVELGGNDMRRGIAPSDSRKNLTEILEILQSRDLPVLLVGLPSANNFGPEFKAEFDDMFPALSTDFETLLYPDFFTSFRTKLNDTSALTTYMQDDAIHPNAKGVAAIVEDFGPLVVELAQQTQE
notes: as for B1
For B2, in the data set “purified protein [2]”, the Km is recorded as 1.26 (± 0.17) mM, the Vmax was found to be 46.8 µM/min, the catalytic constant (kcat) was 5.1 ± 0.35 s⁻¹ and the kcat/Km was determined as 4200 M⁻¹ s⁻¹.

B3: HaSGNH1 (Falsihalocynthiibacter arcticus; R87L) (protein)
chain: MSARVQAETVVIAALGDSLTQGYGLPQEDGLVAQLQGWLDENNHDIRLINAGVSGDTTAGGRSRIEWTLTPDVDAVIVELGGNDMMLGIAPSDSRKNLTEILEILQSRDLPVLLVGLPSANNFGPEFKAEFDDMFPALSTDFETLLYPDFFTSFRTKLNDTSALTTYMQDDAIHPNAKGVAAIVEDFGPLVVELAQQTQE
notes: as for B1
In the case of B3, in “purified protein [2]”, the Km is reported as 0.68 (± 0.10) mM, the maximal velocity (Vmax) worked out at 69 µM/min, the catalytic constant (kcat) amounted to 15 ± 0.84 s⁻¹ and the specificity constant (kcat/Km) amounted to 22200 M⁻¹ s⁻¹.

B4: HaSGNH1 (Falsihalocynthiibacter arcticus; M86E) (protein)
chain: MSARVQAETVVIAALGDSLTQGYGLPQEDGLVAQLQGWLDENNHDIRLINAGVSGDTTAGGRSRIEWTLTPDVDAVIVELGGNDMERGIAPSDSRKNLTEILEILQSRDLPVLLVGLPSANNFGPEFKAEFDDMFPALSTDFETLLYPDFFTSFRTKLNDTSALTTYMQDDAIHPNAKGVAAIVEDFGPLVVELAQQTQE
notes: as for B1
Regarding B4, in “purified protein [2]”, the Km is reported as 1.06 (± 0.23) mM, the Vmax is 36.6 µM/min, the kcat was 4 ± 0.39 s⁻¹ and the specificity constant (kcat/Km) stood at 3800 M⁻¹ s⁻¹.
